PMC9398005, “A Drosophila Su(H) model of Adams-Oliver Syndrome reveals cofactor titration as a mechanism underlying developmental defects”

Assays:
Rbpj WT (core) [1] = biological target: T1, Rbpj WT (core) (mouse, UniProt P31266 53-474); assay: EMSA; ITC: 50 mM sodium phosphate, 150 mM NaCl, 10 C (pH not stated); EMSA purified: 3.4 nM probe, 10 min room temperature; EMSA IVT: 10 mM Tris-HCl pH 7.5, 100 mM NaCl, 0.1 mM EDTA, 0.5 mM DTT, 4% glycerol, poly(dI-dC); details: protein: recombinant; tags: GST removed by PreScission (pGEX-6P1); label: IRDye-700 at 5' end of strand 2; blunt
T1 sequence (P31266 53-474): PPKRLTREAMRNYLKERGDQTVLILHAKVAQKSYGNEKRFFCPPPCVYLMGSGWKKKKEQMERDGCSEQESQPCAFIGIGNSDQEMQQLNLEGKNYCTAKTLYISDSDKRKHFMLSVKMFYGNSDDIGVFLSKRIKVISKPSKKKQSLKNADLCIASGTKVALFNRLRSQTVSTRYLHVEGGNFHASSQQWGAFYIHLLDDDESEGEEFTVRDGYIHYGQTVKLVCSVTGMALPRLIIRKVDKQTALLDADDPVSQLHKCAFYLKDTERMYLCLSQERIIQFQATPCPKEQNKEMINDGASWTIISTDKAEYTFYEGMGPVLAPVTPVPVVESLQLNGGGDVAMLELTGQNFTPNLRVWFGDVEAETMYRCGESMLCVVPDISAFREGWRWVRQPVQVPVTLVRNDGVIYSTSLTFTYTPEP

Flag-Rbpj WT full length = Flag-Rbpj WT full length (mouse, UniProt P31266 1-526); assay: EMSA; poly(dI-dC); single and double occupancy; anti-Flag supershift; ITC: 50 mM sodium phosphate, 150 mM NaCl, 10 C (pH not stated); EMSA purified: 3.4 nM probe, 10 min room temperature; EMSA IVT: 10 mM Tris-HCl pH 7.5, 100 mM NaCl, 0.1 mM EDTA, 0.5 mM DTT, 4% glycerol, poly(dI-dC); details: protein: ivt; tags: Flag; label: 32P; 5' overhang 4 nt both ends
Chain of Flag-Rbpj WT full length (P31266 whole entry): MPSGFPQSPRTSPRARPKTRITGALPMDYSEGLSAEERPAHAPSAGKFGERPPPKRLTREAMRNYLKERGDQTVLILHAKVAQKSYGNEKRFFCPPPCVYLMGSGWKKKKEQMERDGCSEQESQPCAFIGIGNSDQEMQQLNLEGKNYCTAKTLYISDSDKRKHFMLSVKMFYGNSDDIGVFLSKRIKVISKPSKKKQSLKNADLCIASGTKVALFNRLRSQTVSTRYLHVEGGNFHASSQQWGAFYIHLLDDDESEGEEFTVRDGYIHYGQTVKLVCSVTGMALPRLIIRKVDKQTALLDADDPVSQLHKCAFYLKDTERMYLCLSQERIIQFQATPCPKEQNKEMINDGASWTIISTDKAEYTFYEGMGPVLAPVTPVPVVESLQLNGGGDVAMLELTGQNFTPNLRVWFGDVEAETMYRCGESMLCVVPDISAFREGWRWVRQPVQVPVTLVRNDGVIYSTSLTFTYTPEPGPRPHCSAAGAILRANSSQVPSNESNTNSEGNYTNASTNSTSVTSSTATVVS

Rbpj E89G = Rbpj E89G (mouse, UniProt P31266 53-474, E89G); assay: ITC; 10 C; ITC: 50 mM sodium phosphate, 150 mM NaCl, 10 C (pH not stated); EMSA purified: 3.4 nM probe, 10 min room temperature; EMSA IVT: 10 mM Tris-HCl pH 7.5, 100 mM NaCl, 0.1 mM EDTA, 0.5 mM DTT, 4% glycerol, poly(dI-dC); details: protein: recombinant; tags: GST removed by PreScission (pGEX-6P1); blunt
Chain of Rbpj E89G (P31266 53-474 E89G): as the sequence (P31266 53-474) above, with E37G counted along it

Rbpj WT (core) [2] = biological target: T1, Rbpj WT (core); assay: as above; details: protein: recombinant; tags: GST removed by PreScission (pGEX-6P1); blunt
Rbpj K195E = Rbpj K195E (mouse, UniProt P31266 53-474, K195E); assay: as above; details: protein: recombinant; tags: GST removed by PreScission (pGEX-6P1); blunt
Chain of Rbpj K195E (P31266 53-474 K195E): as the sequence (P31266 53-474) above, with K143E counted along it

B1: EMSA high affinity CSL probe (dsDNA)
DNA 1: CGAACGAGGCAAACCTAGGCTAGAGGCACCGTGGGAAACTAGTGCGGGCGTGGCT
DNA 2: AGCCACGCCCGCACTAGTTTCCCACGGTGCCTCTAGCCTAGGTTTGCCTCGTTCG
binding result (Rbpj WT (core) [1]): binds

B2: EMSA probe with 2 RBPJ sites (dsDNA)
DNA 1: CCTGGAACTATTTTCCCACGGTGCCCTTCCGCCCATTTTCCCACGAGTCG
DNA 2: CTCGCGACTCGTGGGAAAATGGGCGGAAGGGCACCGTGGGAAAATAGTTC
binding result (Flag-Rbpj WT full length): binds

B3: ITC 20-mer CSL duplex (dsDNA)
DNA 1: GGCACCGTGGGAAACTAGTG
DNA 2: CACTAGTTTCCCACGGTGCC
Kd (Rbpj E89G): 0.441 ± 0.0868 µM | Kd (Rbpj WT (core) [2]): 0.074 ± 0.0108 µM | Kd (Rbpj K195E): 1.16 ± 0.258 µM
